{"source": "patent US20240400659A1", "about": "(BIOATLA, published 2024)", "binders": {"B1": {"name": "Anti-ApoE wildtype antibody BAP191.01-WT (antibody, V domains shown)", "VH": "QIQLVQSGPELKKPGETVKISCKASGYTFTTAGMQWVQKMPGKGFKWIGWINTHSGEPKYAEDFKGRFAFSLETSASTAYLQISNLKNEDTATYFCARMGGYAMDYWGQGTSVTVSS", "VL": "DIKLTQSPSSMYASLGERVTITCKASEDINSYLSWFQQKPGKSPKTLIYRANRLVDGVPSRFSGSGSGQDYSLTISSLEYEDMGIYYCLQYDEFPLTFGAGTKLELT", "notes": "also called benchmark; parent"}, "B2": {"name": "BAP191.01-CPE-HC-I051D (antibody, V domains shown)", "VH": "QIQLVQSGPELKKPGETVKISCKASGYTFTTAGMQWVQKMPGKGFKWIGWDNTHSGEPKYAEDFKGRFAFSLETSASTAYLQISNLKNEDTATYFCARMGGYAMDYWGQGTSVTVSS", "VL": "DIKLTQSPSSMYASLGERVTITCKASEDINSYLSWFQQKPGKSPKTLIYRANRLVDGVPSRFSGSGSGQDYSLTISSLEYEDMGIYYCLQYDEFPLTFGAGTKLELT", "notes": "also called BAP191.01-CPE-HC-1051D"}, "B3": {"name": "BAP191-01-CPE-HC-M034D (antibody, V domains shown)", "VH": "QIQLVQSGPELKKPGETVKISCKASGYTFTTAGDQWVQKMPGKGFKWIGWINTHSGEPKYAEDFKGRFAFSLETSASTAYLQISNLKNEDTATYFCARMGGYAMDYWGQGTSVTVSS", "VL": "DIKLTQSPSSMYASLGERVTITCKASEDINSYLSWFQQKPGKSPKTLIYRANRLVDGVPSRFSGSGSGQDYSLTISSLEYEDMGIYYCLQYDEFPLTFGAGTKLELT"}, "B4": {"name": "BAP191.01-CPE-LC-Y091D (antibody, V domains shown)", "VH": "QIQLVQSGPELKKPGETVKISCKASGYTFTTAGMQWVQKMPGKGFKWIGWINTHSGEPKYAEDFKGRFAFSLETSASTAYLQISNLKNEDTATYFCARMGGYAMDYWGQGTSVTVSS", "VL": "DIKLTQSPSSMYASLGERVTITCKASEDINSYLSWFQQKPGKSPKTLIYRANRLVDGVPSRFSGSGSGQDYSLTISSLEYEDMGIYYCLQDDEFPLTFGAGTKLELT"}, "B5": {"name": "BAP191.01-CPE-HC-R098E (antibody, V domains shown)", "VH": "QIQLVQSGPELKKPGETVKISCKASGYTFTTAGMQWVQKMPGKGFKWIGWINTHSGEPKYAEDFKGRFAFSLETSASTAYLQISNLKNEDTATYFCAEMGGYAMDYWGQGTSVTVSS", "VL": "DIKLTQSPSSMYASLGERVTITCKASEDINSYLSWFQQKPGKSPKTLIYRANRLVDGVPSRFSGSGSGQDYSLTISSLEYEDMGIYYCLQYDEFPLTFGAGTKLELT"}, "B6": {"name": "BAP191.01-CPE-HC-M099E (antibody, V domains shown)", "VH": "QIQLVQSGPELKKPGETVKISCKASGYTFTTAGMQWVQKMPGKGFKWIGWINTHSGEPKYAEDFKGRFAFSLETSASTAYLQISNLKNEDTATYFCAREGGYAMDYWGQGTSVTVSS", "VL": "DIKLTQSPSSMYASLGERVTITCKASEDINSYLSWFQQKPGKSPKTLIYRANRLVDGVPSRFSGSGSGQDYSLTISSLEYEDMGIYYCLQYDEFPLTFGAGTKLELT"}, "B7": {"name": "BAP191.01-CPE-HC-M104E (antibody, V domains shown)", "VH": "QIQLVQSGPELKKPGETVKISCKASGYTFTTAGMQWVQKMPGKGFKWIGWINTHSGEPKYAEDFKGRFAFSLETSASTAYLQISNLKNEDTATYFCARMGGYAEDYWGQGTSVTVSS", "VL": "DIKLTQSPSSMYASLGERVTITCKASEDINSYLSWFQQKPGKSPKTLIYRANRLVDGVPSRFSGSGSGQDYSLTISSLEYEDMGIYYCLQYDEFPLTFGAGTKLELT"}, "B8": {"name": "BAP191.01-CPE-LC-P095D (antibody, V domains shown)", "VH": "QIQLVQSGPELKKPGETVKISCKASGYTFTTAGMQWVQKMPGKGFKWIGWINTHSGEPKYAEDFKGRFAFSLETSASTAYLQISNLKNEDTATYFCARMGGYAMDYWGQGTSVTVSS", "VL": "DIKLTQSPSSMYASLGERVTITCKASEDINSYLSWFQQKPGKSPKTLIYRANRLVDGVPSRFSGSGSGQDYSLTISSLEYEDMGIYYCLQYDEFDLTFGAGTKLELT"}}, "key": {"Apolipoprotein E4 [1]": {"molecular_target": "T1, Apolipoprotein E4 (human, UniProt P02649 19-317)", "T1 construct": "also called ApoE4; hApoE4", "T1 sequence (P02649 19-317 C130R limits assumed)": "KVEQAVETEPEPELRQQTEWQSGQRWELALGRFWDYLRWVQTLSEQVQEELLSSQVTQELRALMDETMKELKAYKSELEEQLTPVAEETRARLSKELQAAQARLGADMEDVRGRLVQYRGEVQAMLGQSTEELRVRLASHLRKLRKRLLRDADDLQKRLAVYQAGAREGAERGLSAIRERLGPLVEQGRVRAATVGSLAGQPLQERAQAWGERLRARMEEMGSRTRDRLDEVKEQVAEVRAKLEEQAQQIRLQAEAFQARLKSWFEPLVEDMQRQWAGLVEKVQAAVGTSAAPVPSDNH", "assay": "pH affinity ELISA, coated hApoE4, pH 6.0"}, "mouse ApoE [2]": {"molecular_target": "T2, mouse ApoE (mouse, UniProt P08226 19-311, limits assumed)", "T2 construct": "also called msApoE; ms ApoE", "T2 sequence (looked up)": "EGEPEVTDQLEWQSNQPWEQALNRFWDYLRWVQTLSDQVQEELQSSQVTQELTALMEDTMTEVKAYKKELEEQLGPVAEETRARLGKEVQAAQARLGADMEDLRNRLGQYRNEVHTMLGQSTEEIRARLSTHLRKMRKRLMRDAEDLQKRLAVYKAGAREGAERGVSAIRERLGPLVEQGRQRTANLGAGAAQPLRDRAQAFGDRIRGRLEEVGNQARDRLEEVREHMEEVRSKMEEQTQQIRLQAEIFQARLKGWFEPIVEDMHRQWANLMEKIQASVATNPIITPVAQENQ", "assay": "pH affinity ELISA, coated mouse ApoE"}, "Apolipoprotein E4 [3]": {"molecular_target": "T1, Apolipoprotein E4", "assay": "pH affinity ELISA, coated hApoE4, pH 7.4"}, "mouse ApoE [4]": {"molecular_target": "T2, mouse ApoE", "assay": "pH affinity ELISA, coated mouse ApoE, pH 6.0"}, "mouse ApoE [5]": {"molecular_target": "T2, mouse ApoE", "assay": "pH affinity ELISA, coated mouse ApoE, pH 7.4"}, "Apolipoprotein E3 [6]": {"molecular_target": "T3, Apolipoprotein E3 (human, UniProt P02649 19-317)", "T3 construct": "also called ApoE3; hApoE3", "T3 sequence (P02649 19-317 limits assumed)": "as the sequence (P02649 19-317 C130R limits assumed) above, with R112C counted along it", "assay": "pH affinity ELISA, coated hApoE3, pH 7.4"}, "Apolipoprotein E3 [7]": {"molecular_target": "T3, Apolipoprotein E3", "assay": "pH affinity ELISA, coated hApoE3, pH 6.0"}, "Apolipoprotein E3 [8]": {"molecular_target": "T3, Apolipoprotein E3", "assay": "pH affinity ELISA, coated hApoE3"}, "Apolipoprotein E4 [9]": {"molecular_target": "T1, Apolipoprotein E4", "assay": "pH affinity ELISA, coated hApoE4"}}}
{"binder": "B1", "values": [{"measurement": "EC50", "setting": "Apolipoprotein E4 [1]", "result": 0.0797, "unit": "µg/mL"}, {"measurement": "Ratio pH 7.4/6.0 (EC50)", "setting": "mouse ApoE [2]", "result": 0.96, "unit": "ratio"}, {"measurement": "EC50", "setting": "Apolipoprotein E4 [3]", "result": 0.0368, "unit": "µg/mL"}, {"measurement": "EC50", "setting": "mouse ApoE [4]", "result": 0.0926, "unit": "µg/mL"}, {"measurement": "EC50", "setting": "mouse ApoE [5]", "result": 0.089, "unit": "µg/mL"}, {"measurement": "EC50", "setting": "Apolipoprotein E3 [6]", "result": 0.0991, "unit": "µg/mL"}, {"measurement": "EC50", "setting": "Apolipoprotein E3 [7]", "result": 0.136, "unit": "µg/mL"}, {"measurement": "Ratio pH 7.4/6.0 (EC50)", "setting": "Apolipoprotein E3 [8]", "result": 0.73, "unit": "ratio"}, {"measurement": "Ratio pH 7.4/6.0 (EC50)", "setting": "Apolipoprotein E4 [9]", "result": 0.46, "unit": "ratio"}]}
{"binder": "B2", "values": [{"measurement": "EC50", "setting": "Apolipoprotein E4 [1]", "result": 1.54, "unit": "µg/mL"}, {"measurement": "Ratio pH 7.4/6.0 (EC50)", "setting": "mouse ApoE [2]", "result": 3.76, "unit": "ratio"}, {"measurement": "EC50", "setting": "Apolipoprotein E4 [3]", "result": 4.75, "unit": "µg/mL"}, {"measurement": "EC50", "setting": "mouse ApoE [4]", "result": 0.104, "unit": "µg/mL"}, {"measurement": "EC50", "setting": "mouse ApoE [5]", "result": 0.39, "unit": "µg/mL"}, {"measurement": "Ratio pH 7.4/6.0 (EC50)", "setting": "Apolipoprotein E4 [9]", "result": 3.07, "unit": "ratio"}]}
{"binder": "B3", "values": [{"measurement": "EC50", "setting": "Apolipoprotein E4 [1]", "result": 0.685, "unit": "µg/mL"}, {"measurement": "Ratio pH 7.4/6.0 (EC50)", "setting": "mouse ApoE [2]", "result": 3.71, "unit": "ratio"}, {"measurement": "EC50", "setting": "Apolipoprotein E4 [3]", "result": 2.06, "unit": "µg/mL"}, {"measurement": "EC50", "setting": "mouse ApoE [4]", "result": 0.105, "unit": "µg/mL"}, {"measurement": "EC50", "setting": "mouse ApoE [5]", "result": 0.389, "unit": "µg/mL"}, {"measurement": "Ratio pH 7.4/6.0 (EC50)", "setting": "Apolipoprotein E4 [9]", "result": 3.01, "unit": "ratio"}]}
{"binder": "B4", "values": [{"measurement": "EC50", "setting": "Apolipoprotein E4 [1]", "result": 0.084, "unit": "µg/mL"}, {"measurement": "EC50", "setting": "Apolipoprotein E4 [3]", "result": 0.15, "unit": "µg/mL"}, {"measurement": "Ratio pH 7.4/6.0 (EC50)", "setting": "Apolipoprotein E4 [9]", "result": 1.79, "unit": "ratio"}]}
{"binder": "B5", "values": [{"measurement": "EC50", "setting": "Apolipoprotein E4 [1]", "result": 4.36, "unit": "µg/mL"}, {"measurement": "Ratio pH 7.4/6.0 (EC50)", "setting": "mouse ApoE [2]", "result": 2.53, "unit": "ratio"}, {"measurement": "EC50", "setting": "Apolipoprotein E4 [3]", "result": 18.9, "unit": "µg/mL"}, {"measurement": "EC50", "setting": "mouse ApoE [4]", "result": 0.163, "unit": "µg/mL"}, {"measurement": "EC50", "setting": "mouse ApoE [5]", "result": 0.413, "unit": "µg/mL"}, {"measurement": "Ratio pH 7.4/6.0 (EC50)", "setting": "Apolipoprotein E4 [9]", "result": 4.33, "unit": "ratio"}]}
{"binder": "B6", "values": [{"measurement": "EC50", "setting": "Apolipoprotein E4 [1]", "result": 2.93, "unit": "µg/mL"}, {"measurement": "Ratio pH 7.4/6.0 (EC50)", "setting": "mouse ApoE [2]", "result": 2.75, "unit": "ratio"}, {"measurement": "EC50", "setting": "Apolipoprotein E4 [3]", "result": 6890, "unit": "µg/mL"}, {"measurement": "EC50", "setting": "mouse ApoE [4]", "result": 0.573, "unit": "µg/mL"}, {"measurement": "EC50", "setting": "mouse ApoE [5]", "result": 1.58, "unit": "µg/mL"}, {"measurement": "Ratio pH 7.4/6.0 (EC50)", "setting": "Apolipoprotein E4 [9]", "result": 2350, "unit": "ratio"}]}
{"binder": "B7", "values": [{"measurement": "EC50", "setting": "Apolipoprotein E4 [1]", "result": 4.2, "unit": "µg/mL"}, {"measurement": "Ratio pH 7.4/6.0 (EC50)", "setting": "mouse ApoE [2]", "result": 2.25, "unit": "ratio"}, {"measurement": "EC50", "setting": "Apolipoprotein E4 [3]", "result": 68700, "unit": "µg/mL"}, {"measurement": "EC50", "setting": "mouse ApoE [4]", "result": 1.09, "unit": "µg/mL"}, {"measurement": "EC50", "setting": "mouse ApoE [5]", "result": 2.45, "unit": "µg/mL"}, {"measurement": "EC50", "setting": "Apolipoprotein E3 [6]", "result": 9.25, "unit": "µg/mL"}, {"measurement": "EC50", "setting": "Apolipoprotein E3 [7]", "result": 3.13, "unit": "µg/mL"}, {"measurement": "Ratio pH 7.4/6.0 (EC50)", "setting": "Apolipoprotein E3 [8]", "result": 2.95, "unit": "ratio"}, {"measurement": "Ratio pH 7.4/6.0 (EC50)", "setting": "Apolipoprotein E4 [9]", "result": 18400, "unit": "ratio"}]}
{"binder": "B8", "values": [{"measurement": "EC50", "setting": "Apolipoprotein E4 [1]", "result": 0.0893, "unit": "µg/mL"}, {"measurement": "Ratio pH 7.4/6.0 (EC50)", "setting": "mouse ApoE [2]", "result": 1.67, "unit": "ratio"}, {"measurement": "EC50", "setting": "Apolipoprotein E4 [3]", "result": 0.147, "unit": "µg/mL"}, {"measurement": "EC50", "setting": "mouse ApoE [4]", "result": 0.146, "unit": "µg/mL"}, {"measurement": "EC50", "setting": "mouse ApoE [5]", "result": 0.244, "unit": "µg/mL"}, {"measurement": "EC50", "setting": "Apolipoprotein E3 [6]", "result": 0.311, "unit": "µg/mL"}, {"measurement": "EC50", "setting": "Apolipoprotein E3 [7]", "result": 0.245, "unit": "µg/mL"}, {"measurement": "Ratio pH 7.4/6.0 (EC50)", "setting": "Apolipoprotein E3 [8]", "result": 1.27, "unit": "ratio"}, {"measurement": "Ratio pH 7.4/6.0 (EC50)", "setting": "Apolipoprotein E4 [9]", "result": 1.65, "unit": "ratio"}]}
